Experimental data as given in patent US20210246507A1.

Molecular target: human C3b (human) (UniProt P01024)
Assay: SPR (Biacore 3000), human C3b amine-coupled to CM5 chip, FHR-4 injected at 1 to 100 µg/ml, 1:1 Langmuir fit

Sequence of UniProt P01024 (P01024 23-667 limits assumed, chain 1 of 2): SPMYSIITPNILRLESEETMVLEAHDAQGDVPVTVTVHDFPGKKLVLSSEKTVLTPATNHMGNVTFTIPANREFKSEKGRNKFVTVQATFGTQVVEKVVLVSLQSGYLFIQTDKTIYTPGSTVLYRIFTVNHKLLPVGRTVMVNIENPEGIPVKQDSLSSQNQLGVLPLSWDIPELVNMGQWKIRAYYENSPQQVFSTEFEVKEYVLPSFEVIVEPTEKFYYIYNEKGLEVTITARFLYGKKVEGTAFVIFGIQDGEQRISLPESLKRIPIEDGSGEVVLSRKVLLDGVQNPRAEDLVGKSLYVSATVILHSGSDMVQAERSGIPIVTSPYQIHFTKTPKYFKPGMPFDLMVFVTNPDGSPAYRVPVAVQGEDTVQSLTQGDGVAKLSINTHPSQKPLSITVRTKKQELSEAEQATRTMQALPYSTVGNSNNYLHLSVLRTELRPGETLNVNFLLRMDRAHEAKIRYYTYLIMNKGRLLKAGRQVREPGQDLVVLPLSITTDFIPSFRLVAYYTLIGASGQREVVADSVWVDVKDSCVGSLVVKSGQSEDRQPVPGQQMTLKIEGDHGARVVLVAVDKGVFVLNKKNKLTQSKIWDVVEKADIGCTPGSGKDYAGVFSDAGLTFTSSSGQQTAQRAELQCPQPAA
Sequence of UniProt P01024 (P01024 749-1663 limits assumed, chain 2 of 2): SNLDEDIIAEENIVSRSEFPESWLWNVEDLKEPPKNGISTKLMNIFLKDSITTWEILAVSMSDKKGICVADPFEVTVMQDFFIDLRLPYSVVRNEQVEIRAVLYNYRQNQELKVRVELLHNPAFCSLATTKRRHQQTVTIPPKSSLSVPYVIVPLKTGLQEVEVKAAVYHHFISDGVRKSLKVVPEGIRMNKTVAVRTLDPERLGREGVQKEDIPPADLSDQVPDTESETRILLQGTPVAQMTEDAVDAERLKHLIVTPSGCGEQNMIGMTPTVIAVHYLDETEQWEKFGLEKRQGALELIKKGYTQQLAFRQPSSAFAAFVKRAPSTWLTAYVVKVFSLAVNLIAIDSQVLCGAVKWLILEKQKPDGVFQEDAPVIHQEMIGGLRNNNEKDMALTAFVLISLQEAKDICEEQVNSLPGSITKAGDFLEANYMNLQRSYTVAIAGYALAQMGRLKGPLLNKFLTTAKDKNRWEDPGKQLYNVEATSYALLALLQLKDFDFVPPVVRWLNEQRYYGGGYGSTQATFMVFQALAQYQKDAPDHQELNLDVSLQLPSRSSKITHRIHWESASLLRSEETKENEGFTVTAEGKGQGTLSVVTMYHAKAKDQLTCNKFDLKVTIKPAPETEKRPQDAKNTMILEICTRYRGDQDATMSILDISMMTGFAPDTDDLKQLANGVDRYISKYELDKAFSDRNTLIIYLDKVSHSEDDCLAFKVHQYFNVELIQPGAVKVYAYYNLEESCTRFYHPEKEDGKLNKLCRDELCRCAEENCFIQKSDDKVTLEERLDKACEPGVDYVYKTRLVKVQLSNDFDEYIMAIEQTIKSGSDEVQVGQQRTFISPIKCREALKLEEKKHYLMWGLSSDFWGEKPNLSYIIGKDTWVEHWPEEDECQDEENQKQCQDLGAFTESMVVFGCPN

Kd: 1100 nM
Substance: complement factor H-related protein 4 (FHR-4) (from UniProt Q92496 20-578)
